{
  "source": "the DeepSol protein solubility set",
  "data": [
    {"experiment": "soluble on expression in E. coli; label from the status in PepcDB or PDB records", "values": [
      {"sequence": "MAHHHHHHMRPSFGSLDYNVLSNFCEKLFLAADKNDRNEVITKKTLQMFFTSKIFYEILNHFKNLSTEENKKYVYAKYKTIYLKKCFDNNITPEPGSPKNEDAVSEVDNKIDDEDKEEEEQITNDKYEHYEENNNDYYKGREKIGTQSKGTEDSVDFNLSLKHAQYAVNGIIKIIYIPRYSETRAQIIPFIFRIIFFFNGEEETKNIGYII", "soluble on expression in E. coli": "not soluble"},
      {"sequence": "MFQWLYDVLWLLAPIWIRRYLDKRSGSAPAYRAHRDERFGKPHPNPVTGAVWIHAVSVGETRAAQPLIRELRRRFPDAPLLMTQMTPTGRETAQVLFPDAQCRYLPYDKKTWVRQFLREHRPMFGILMETEIWPNLMKECRRAGVPLFLANARLSEKSLNGYLKVRRLIRPAAASLTGCLAQTEADAARLAKLGAASVQVCGNTKYDLMPSEDMKTLAGQFEKRIGGRPVAVCGSTRVYRGEDEAEKLLAAWQQYRGDALLAVVPRHPEHFQTTFETAKRFGFKVQRRSDGLPVEPDTQVWVGDSMGELYAYYLCADVAFVGGSLVGSGCQNIIEPLSCGVTTIFGFSTYNFSEACRHALASGAAVQVESADAWREAVEKTLSGEGGGMQMQARVDGFIAQHRGAGARIAEAVREAVCGHRGRLEHHHHHH", "soluble on expression in E. coli": "not soluble"},
      {"sequence": "MGSDKIHHHHHHMDFVAVAVHTEYRCNQGWETRAECHWFVSTIRAIMTATQSISLVGGEGDELLMQRYASGDIQAFDTLYRRHKGGLYRYFLRQIGDSQLAEDLYQETWGRVIKAAPAYEISAKFTTWLYRIAHNLLIDHVRAVKPLNEADTLDEEGMALTDSMTPVRSHEHDLKVQALKHCVGLLPQVQKEAFLLSSEMGFTALMISEIASVSLEATKSRIRYAYQSLKTCVAKRLGEDSDER", "soluble on expression in E. coli": "not soluble"},
      {"sequence": "GSLATCIGEKIEDFKVGNLLGKGSFAGVYRAESIHTGLEVAIKMIDKKAMYKAGMVQRVQNEVKIHCQLKHPSILELYNYFEDSNYVYLVLEMCHNGEMNRYLKNRVKPFSENEARHFMHQIITGMLYLHSHGILHRDLTLSNLLLTRNMNIKIADFGLATQLKMPHEKHYTLCGTPNYISPEIATRSAHGLESDVWSLGCMFYTLLIGRPPFDTDTVKNTLNKVVLADYEMPSFLSIEAKDLIHQLLRRNPADRLSLSSVLDHPFMSRNSSTKSKDLGTVEDSIDSGHATISTAITASSSTSISGSLFDKRRLLIGQPLPNKMTVFPKEG", "soluble on expression in E. coli": "soluble"},
      {"sequence": "YATQSKNTNILLEYVSANPTGDLHIGHARNAAVGDSLANILIAAGYNVTREYYINDAGNQITNLARSIEARYFEALGDTSYEMPADGYNGKDIIEIGKDLAVKHPEIKDYSDEERLKTFRQLGVDYEMEKLKKDLSDFNVHFDNWFSETSLYENGAIKNTLSKMKELGYTYEADGATWLRTSDFKDDKDRVLIKKDGNYTYFTPDTAYHYNKINRGNDILIDLMGADHHGYINRLKASLETFGVDSDRLEIQIMQMVRLMQNGEEVKMSKRTGNAITLREIMDEVGIDAARYFLTMRSPDSHFDFDLELAKEQSQDNPIYYAQYAHARICSILKQAKE", "soluble on expression in E. coli": "not soluble"},
      {"sequence": "MGGMTGMNNNAIKVVSVLAIGARERIALVEVGQQQILLGITPSTIRTLHVFDEPVVDAGNAGSSDFARKLQSMIGKSWSAPERKDLEHHHHHH", "soluble on expression in E. coli": "not soluble"},
      {"sequence": "MGSDKIHHHHHHMIHIKRAPDTETAYLVMKEGFSDYMIPLGLSPEVFQERILERDGNQLEHSFIAYHGERPVAIWLNGLKTIKKKTVMRCGGLAVDPQYRRLGIAKALYDAQLSYAKSLNVDCLMLEVIQGNEPAITLYKSFGYQTVSELGYFHKEESGQVEPLVEIDQVAFERRYIQQDEYIWQQDPGVMKLAKARYYELDGAFIAAVNESIFAILTDEEEVARVATEATRRLAGELYHLQSTNQQVWEELLKAGWQQRDLKQFIMQKPISV", "soluble on expression in E. coli": "not soluble"},
      {"sequence": "MSNLIELALRNAALDRTKLLSQVQKIEFLNGYDPRFVEGLISLEMIGDIDEYVASLMYVKMTDKYTQEEKEQLTDTILTINNDRLISCQYRFPQLYQKLMQDQFLSTFFSSSHLLPNIAPGTNNQSYETVSTNNKMKMESAKLYGHYEYYQCVVALITQIDGSRYFYHLNPNRIFGDYMGSAPLKLSGSELKDVKDITFILHPRSMVDYREFQRLQERNIVFKTVMLPVGAKSVSLSYDTDKDVLTVNNLEAGQTVTYNNLLQTPQYNRYQYTPEQYFMTQLYRGQTWAEALGEALDKYIVTRQEGATWWDLKPLFFNRKTTKNNMIAAARIKKEIEAGATSFDFTGVSRNGLLNQLLTTAVDYQLEYQRGLQNGVLSAEDLTTSAALR", "soluble on expression in E. coli": "not soluble"},
      {"sequence": "MMKKPLLVLTALSLSLSAILSPLPATAALPLSVNGEQIPSLAPMLEKVTPAVVSIAVEGTQVSRQRLPDQFRFFFGPDFPTEQLQERPFRGLGSGVIINADKGYVVTNYHVINGAEKIRVKLYDGREFDAELVGGDEMSDVALLKLNKAKNLTEIRIADSDKLRVGDFAVAIGNPFGLGQTVTSGIVSALGRSGLNIENFENFIQTDAAINSGNSGGALVNLNGELIGINTAILGPNGGNVGIGFAIPSNMMKNLTDQILEFGEVKRGMLGVQGGEITSELADALGYESSKGAFVSQVVPDSAADKAGIKAGDIITSLNGKKIDTFSELRAKVATLGAGKTITLGVLRDGKNQNIDVTLGEQQNAKTKAESLHQGLSGAELSNTTDSDPIQGVKVTEVQKGSAAESYQLQKDDIIIGVNRKRVKNIAELRAIMEKSPNILALNIQRGERTLYLVVR", "soluble on expression in E. coli": "not soluble"},
      {"sequence": "MKPKKLSLLLTILPMIIAATGCHSQQESKVDITPHCINLQADSLYRQAMTLMESSCDVDSTRKCIRFLDKALAIDSLNPDYYGMKAKLLSEMGELDSALYIQTLAMEKNAITGEYLFQLGLLQAAKDMHAEAHESFGKSKVFLQAVLKQYPDSLGAFILAEAANSLYENKDSLFMRNIDEIRKRFPERLLEIEMTRRVKPHSLVNQIRRIKIEKDYNIDFDMDSLVEATVNKDLEHHHHHH", "soluble on expression in E. coli": "not soluble"},
      {"sequence": "MSLNVQTVAVIGSGTMGAGIAEVAASHGHQVLLYDISAEALTRAIDGIHARLNSRVTRGKLTAETCERTLKRLIPVTDIHALAAADLVIEAASERLEVKKALFAQLAEVCPPQTLLTTNTSSISITAIAAEIKNPERVAGLHFFNPAPVMKLVEVVSGLATAAEVVEQLCELTLSWGKQPVRCHSTPGFIVNRVARPYYSEAWRALEEQVAAPEVIDAALRDGAGFPMGPLELTDLIGQDVNFAVTCSVFNAFWQERRFLPSLVQQELVIGGRLGKKSGLGVYDWRAEREAVVGLEAVSDSFSPMKVEKKSDGVTEIDDVLLIETQGETAQALAIRLARPVVVIDKMAGKVVTIAAAAVNPDSATRKAIYYLQQQGKTVLQIADYPGMLIWRTVAMIINEALDALQKGVASEQDIDTAMRLGVNYPYGPLAWGAQLGWQRILRLLENLQHHYGEERYRPCSLLRQRALLESGYESEGHHHHHH", "soluble on expression in E. coli": "soluble"},
      {"sequence": "MGSDKIHHHHHHMKGNAPVLAAVDISKGFRVYRAPHQRMLQAIWGERKKFYSEFWALRNVSFQVFPGEVVGVIGCNGSGKSTLLQILAGTLRPTSGQVVRPERVAALLELGAGFNMEYTGRENIIFNAMLLGLGEQEISERLDEIIQFADIGEFIDRPVRTYSSGMFVRLAFSIAAYVDADVLIVDEALAVGDAAFQFKCLNRLEELLLKGITILLVSHDIQLIKSYCSRAIYLSKGRVIFDGDCETATELYLRDSIETQRAEVRSGSLIASGEHGNSVIAYGNGQGRFLSIRMGVLDEARDYFDSGERVWVEVLVQFDLPVPEHPKITLTIRDQRGYNLYGINNLLLGKALNVEPDGRLRTRISFDCDLQAGEYALTFRLENSLSESVCELMDKKVNAAIFRVFNSPKCFDAVVNLHGAFEPVPFCCETRATQ", "soluble on expression in E. coli": "not soluble"},
      {"sequence": "MGKDGEGDKKRETMAVMSLMKDQQNPIQQFQVKFKEIETGFKSWLSKQKLPVEAAVVTAMGGVQGAFIGGLMGTLSPEMPQAGIDPQAMASLKQTQALVGGPLVQARNFAAITGVNAGIACVMKRIRGKEDLESAVVAAFGSGVAYSLVSAGLQGQPMNAITTAAGFAVFQGVFFKLGERFSKPSVEDPYYTRGRSMLLKLGLEKYEKNFKKGLLADPTLPLLTDSALRDVSIPPGPRLLILDHIQRDPELKGKRGSRG", "soluble on expression in E. coli": "not soluble"}
    ]}
  ]
}
